This is an account of results in patent publication US20030195154A1.

This test concerns the target soluble human myeloproliferative leukemia (MPL) receptor (human) (UniProt P40238). The test can be described thus: BIAcore competition: test protein preincubated with 5 nM MPL receptor, passed over Fc-TMP on protein G chip. Set-up: unit not given here.
Chain of UniProt P40238 (P40238 26-491 limits assumed): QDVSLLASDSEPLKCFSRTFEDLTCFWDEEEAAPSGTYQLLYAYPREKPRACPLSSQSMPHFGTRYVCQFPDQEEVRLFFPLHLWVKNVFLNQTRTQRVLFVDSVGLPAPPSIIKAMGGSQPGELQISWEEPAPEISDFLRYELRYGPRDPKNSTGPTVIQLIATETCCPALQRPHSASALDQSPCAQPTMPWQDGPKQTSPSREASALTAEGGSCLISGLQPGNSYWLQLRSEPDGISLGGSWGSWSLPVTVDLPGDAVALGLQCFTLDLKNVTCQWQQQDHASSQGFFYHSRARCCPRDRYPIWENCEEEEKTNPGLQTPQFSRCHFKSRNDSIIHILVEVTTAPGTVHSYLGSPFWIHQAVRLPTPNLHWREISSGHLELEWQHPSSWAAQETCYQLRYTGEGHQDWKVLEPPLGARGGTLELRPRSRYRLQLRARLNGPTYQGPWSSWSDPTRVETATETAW

Substance “TMP sequence fused to the carboxy-terminus of human immunoglobulin Fc (Fc-TMP) (Fc fusion)” registered an affinity of 3.28 to 5.37.
